Assay results reported in the nanobody polyreactivity screen of Harvey et al. (2022).

Test: yeast display, Sf9 membrane polyspecificity reagent, FACS + sequencing; frameworks hold sequencing errors
Summary of the method: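 Galactose-induced (36–48 hours) yeast carrying a synthetic nanobody display library were exposed to 10% biotinylated, detergent-solubilized Sf9 membrane reagent at 4 °C for 1 hour. FACS followed streptavidin microbead enrichment, using low and high (top ~1%) gates for expression (anti-HA) and reagent binding (streptavidin). Colony PCR, MiSeq 2 × 250 sequencing and CDR-length filtering followed. Labels for polyreactivity reflect the gate of origin.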

Sequence | polyreactivity (PSR sort gate)
QVQLVESGGGLVQAGGSLRISCAASGRTFRHYAMGWYIQAPGKEREFVAAISRSGGSTRYADSVKGRFTISRDNAKNSVYLQMNSLKPEDTAVYYCAATSRSYNDYDYWGQGTQVTVSS | high polyreactivity
QVQLVESGGGLVQAGGSLRISCAASGRTFRKYGMGWYRQAPGKERELLAAITRSGDSTYYADSVKARFTISRDNAMNTVYLQMNSLKPEDTAVYYCNTDGPRTYDTWEYDYWGQGTQVTVSS | high polyreactivity
QVQLVESGGGLVQAGGSLRISCAASGRTFSRYAMGGYRQAPGTERELVAAISRRGSSTYYADSVKGRFTISRDNAKNTVYLQINSLKPEDTAVYYCNTVTFPYVPALYDYWGQGTQVTVSS | high polyreactivity
QVQLVESGGGLVQAGGSLRISCAASGRTFWKYVMGWYRQAPGKEMELVAVISRPAGSTYYADSVKGRFTISRDNAKNTVYLQRNSLKPEDTAVYYCDKRPKNKPVLGDYDHWGQGTQVTVSS | low polyreactivity
QVQLVESGGGLVQAGGSLRISCAASGRTFYWNAMGWYRQAPGKERELVASINGGGSTYYADSVKGRFTISRDNAKNTVYLQMNSLKPEDTAVYYCNAESYEFHRAWGDYDYWGQGTQVTVSS | low polyreactivity
QVQLVESGGGLVQAGGSLRISCAASGSIFDYYVMGWYRQATGKERELVAAISWSGASTYYADSVKGRCTISRDNAKNTVYLQMNSLKREDTAVYYCAAYYGVNNLIDYDYWGQGTQVTVSS | low polyreactivity
QVQLVESGGGLVQAGGSLRISCAASGSIFGDNAMGWYRHAPGKERELVAAITFSGGSTHYADSVKGRFTISRDTAKNTVYLQMNSLKPEDTAVYYCAKRWRYSKHVNYYYWGQGTQVTVSS | high polyreactivity
QVQLVESGGGLVQAGGSLRISCAASGSIFGWYAMGWYRPAPGKEREFVATISRRGGRTYYADSVKGRFTISRDNAKNTVYLQMNSLKQEDTAVYYCAANSVYKEDYWGQVTQVTVSS | high polyreactivity
QVQLVESGGGLVQAGGSLRISCAASGSIFHTYAMGWYRQAPGKERELVAAITVSGGDTYYADSVKGRFTISRDNAKNTVYLQMHSLKPEDTAVYYCAVDTTTSYTVEYDYWGQGTQVTVSS | low polyreactivity
QVQLVESGGGLVQAGGSLRISCAASGSIFPTYAMGWYRQAPGKERELVAAISGSGGSTYYADSVKGRFTISRDNAKNTVYFQINSLKPEDTAVYYCAVRRRRYHTYYRGYDNWGQGTQVTVSA | low polyreactivity
QVQLVESGGGLVQAGGSLRISCAASGSIFRIYAMGWYRQAPGKERELVAAISWTGGSTYYADSVKGRFSISRDNAKNTVYLQMNSMKPDDTAVYYCASRPRYKFSAYEYWGQGTQVTVSS | high polyreactivity
QVQLVESGGGLVQAGGSLRISCAASGSIFRWNAMGWYRQAPGKERELVAAINWSGGSTYYADSVKGRFTISRDNAKNTVYLQMNSLKPEDTAVYYCAVDYWSGITWVEYWGQGTQVTVSS | high polyreactivity
QVQLVESGGGLVQAGGSLRISCAASGSIFSRNAMGWYRQAPGKERELVAAITSGGSTYYADSVKGRFTISRDNAKNTVYLQMNSLKPEDTAVYYCAAVDYYGYVPEFGYWGQGTQVTVSS | low polyreactivity
QVQLVESGGGLVQAGGSLRISCAASGSIFYVYAMGLYRQAPGKERELVAAISRRGARTYYADSVKGRFTISRDNAKNTVYLQMNSLKPEDSAVYYCNADQYYTVGYSAEYEYWGQGTQVTVSS | low polyreactivity
QVQLVESGGGLVQAGGSLRISCAASGSTFFKNAMGWYRQAPGKERELVAAITWSGDRTYADSVKGRFTISRDNAKNTVYLQMNSLKPEDTAVYYCNVDITGYDDDYWGQGPQVTVSS | low polyreactivity
QVQLVESGGGLVQAGGSLRISCAASGSTFPYYAMGWYRQAPGKERELVAAISQNGGSTYYADSVKGRFTISRDNAKNTVYLQMNSLKPEDTAGYYCNRTARKLRTVHSSVVGLDYWGQGTQVTVSS | low polyreactivity
QVQLVESGGGLVQAGGSLRISCAASGSTFRYYAMGWYKQAPGKERELVAAITTSGGRTYYADSVKGRFTISRDNAKNTVYLQMNSLKPEDTAVYYCAIRYSTPYLTDNFLSGPGYYYWGQGSQVTVSS | high polyreactivity
QVQLVESGGGLVQAGGSLRISCAASGSTFWNAMGWYRQAPGKERELVAAIRLSGGSTYYADSVKGRFTISRDNAKNTVYLQMNSLKPEDTAVYYCNSDVTFGYWEYDYWGQGTQVTVSS | low polyreactivity
QVQLVESGGGLVQAGGSLRISCAASGSTFYCYAMGWYRQAPGKERELVAAIRRNGDGTYYADSVKGRFTISRDNAKNTVYLQMNSLKPVDTAVYYCAARRFIPRFNYWGQGTQVTVSS | high polyreactivity
QVQLVESGGGLVQAGGSLRISCAASGSTFYKYDMGWYRQAPGKEREFVAVISRSGGNTYYADSVKGRFTISRDNAKNTVYLQMNSLKPEDTAVSYCAADNYPDEYDYWGQGTQVTVSS | low polyreactivity
QVQLVESGGGLVQAGGSLRISCAASGSTFYLYDMGWYRQAPGKERELVANITSGTSTTYADSVKVRFTISRDNAKNTVYLQMNSLKPEDTAVYYCNATYTSPEYDYWGQGTQVTVSS | low polyreactivity
QVQLVESGGGLVQAGGSLRISCAASGSTFYRYPMAWYRQAPGKERELVAAISGSGGRTYYADSVKGRFTISRDNAKNTVYLQMNSLKPEYTAVYYCATRFGQRSDYWGQGTQVTVSS | high polyreactivity

Sequence | polyreactivity (PSR sort gate)
QVQLVESGGGLVQAGGSLRISCAASGSTFYYNAMGWYRQAPGKERELVAAISYSGGRTYYADSLTGRFTISRDNAKNTVYLQMNSLKPEDTAVYYCATGQPILALRYAYGYWGQGTQVTVSS | low polyreactivity
QVQLVESGGGLVQAGGSLRISCAASGSTVRYYAMGWNRQAHGKERHLVARNTSRAGRTYYADSVKGRFTISRDNAKNTVYLQMNSLKPEDTAVYYCAADQSGFRWKWYIRYDYWGQGTQVTVSS | high polyreactivity
QVQLVESGGGLVQAGGSLRISCAASGTNNRTYAMGWYRQSTGKERDLVAAISKRGGSTYYADSVKGRFTISRDKAKNTVYLQMNSLKPEDTEVYYCAKKSTPGYGTSNDSWVQGTQVTVSS | high polyreactivity
QVQLVESGGGLVQAGGSLRISCAASVSTFWYYAMGWYIQAPRKERELVAPISRTGGGTYYADSVKGRFTISRDNAKNSVYLQMNSLKPEDTAVYYCARGSVYSDAQIYDYWGQGTQVTVSS | low polyreactivity
QVQLVESGGGLVQAGGSLRISCADSGITYSANAMGWYRQAPGKERELVAAITGSGGGTYYADSVKGRFTISRDNAKNTVYLQMNSLKPEDTAVYYCKADNYYYSGFDYWGQGTQVTVSS | low polyreactivity
QVQLVESGGGLVQAGGSLRISCAPSGFTFIYYDMGWYRQAPGKERELVAAINRGGNTYYADSVKGRFTISRDNAKNTVFLLMNSLKPEDTAVYYCNARSYRRGTWYNSWGQGTKVTVSS | high polyreactivity
QVQLVESGGGLVQAGGSLRISCAPSGIIFTDYAMGWYRQAPVKERELVAAISSGGGYTYYADSVKGRFTISRDNAKNTVYLQMISLKPEDTAVYYCAAEGYLISGAGDYLYDYYLGQGTQVTVSS | high polyreactivity
QVQLVESGGGLVQAGGSLRISCAPSGSTFYYNAIGWSRQAPGKERELVARISRSGGSTYADSVKGRFTISRDNAKNTVYLQMNSLKPEDTAVYYCNADAYGTPEFTSYAVRYDYWGQGTQVTVSS | low polyreactivity
QVQLVESGGGLVQAGGSLRISSAASGRTFGPYAIGWYRQAPGKESELVAAITSSGGSTYYADSVKGRFTISRDTAKNTFYLQMNSLKPEDTAVYYCNKLYWRESPDYDYWGQGTQVTVSS | low polyreactivity
QVQLVESGGGLVQAGGSLRISSAASGRTFQTNVMGWYRQAPGKERELVAAISKTGGRTYYADSVKGRFTISRDNAKNTVYLQMNSLNPEDTAVYYCAADSSGYEDYDYWGQGTQVTVSS | high polyreactivity
QVQLVESGGGLVQAGGSLRITCAASGSTFATYTIGWYRQPPGKEMELVAAISVSGSRTYADSVKGRFTISRDNAKNSVYLQMNSLKPEDTAVYYCAPRNYSVASYGEYDYWGQGTQVTVSS | high polyreactivity
QVQLVESGGGLVQAGGSLRKSCAASGIIFAYYALGCSRQAPGKERELGAAISSDGSTNYADSVKGRFTISRDNAKNSVYLQMNILKPVDTAVYYCAAKAYLYHWFEMYYWGQGTQVTVSS | high polyreactivity
QVQLVESGGGLVQAGGSLRKTCAASVRIFHYYAMGWYRQAPGKERELVAAINKSGGRTYYADSVKGRFTISRDNAKNTFYLQMNSLKPEDTAVYYCAAQDGYLGQGTQVTVSS | high polyreactivity
QVQLVESGGGLVQAGGSLRLALLPPDLPSTLNDMGLYRQAPGKERELVAAITRGGSTNYADSVKGRFTISRDNAKNTVYLQMNSLKPEDTADYYCAAPYAGWRDGGDYWGQGTQVTVSS | low polyreactivity
QVQLVESGGGLVQAGGSLRLCCAAAGSTFVYYAMGSYRAAPGNERELVAAIRNGDGTNYADSVKGRFTISRDNAKNTVYLQMNSLKPEDTAVYYCAAPQGEYFYVYEFDYWGQGTQVTVSS | low polyreactivity
QVQLVESGGGLVQAGGSLRLCCAASGFTFPYNGMGWYRQAPGKERELVASISWSGASTYYADSVKGRFTISRDNAKNTVYLQMNSLKPEDTAVYYCAADPGYYSWGCSQDDYWGQGTQVTVSS | low polyreactivity
QVQLVESGGGLVQAGGSLRLCCAASGFTFSYYAMGGYRQAPGKERELVAAISRSGGRTYYADSVKGRFTISRDHAKNTVYVQMNSLKPEDTAVYSCAGVYFGSIFVLEYDYWGQGTQVTVSS | high polyreactivity
QVQLVESGGGLVQAGGSLRLCCAASGITFALNAMRWYRQAPGNERELLAAISWSGDSTYYADSVKGRITIARDNAKNTVYLQMNSLKPEDTAVYYCAAVAYLNWTPHYYWGQGTQVTVSS | low polyreactivity
QVQLVESGGGLVQAGGSLRLCCAASGSTFTLYAMGWYSQAPGKVRELVAAISWSTTSTYYAHSVKGRFTISRDNAKNTVSLQMNSLKPEDTAVYYCAAELYRAEYDYWGQGTQVTVSS | high polyreactivity
QVQLVESGGGLVQAGGSLRLCCAASGSTFYYYAMGWYRQAPGKEREFVASISSRGTSTYYADSVKGRFTISRDNAKNTVYLQLNSLKPEDTAVYYCAARGWGPTRAYDYSGQGTQVTVSS | high polyreactivity
QVQLVESGGGLVQAGGSLRLFCAASGRIFSAYAMGLYRQAPGKERELVAGISSRGGSTYYADSVKGRFTISRDNAKNTVYLQMNSLKPEDTAVYYCAKPYGRRYGRLHDYWGQGTQVTVSS | high polyreactivity
